T1: orthogonal hCD122 receptor (hoRb), hCD122 with H133D and Y134F (human, UniProt P14784 27-550)
T1 sequence: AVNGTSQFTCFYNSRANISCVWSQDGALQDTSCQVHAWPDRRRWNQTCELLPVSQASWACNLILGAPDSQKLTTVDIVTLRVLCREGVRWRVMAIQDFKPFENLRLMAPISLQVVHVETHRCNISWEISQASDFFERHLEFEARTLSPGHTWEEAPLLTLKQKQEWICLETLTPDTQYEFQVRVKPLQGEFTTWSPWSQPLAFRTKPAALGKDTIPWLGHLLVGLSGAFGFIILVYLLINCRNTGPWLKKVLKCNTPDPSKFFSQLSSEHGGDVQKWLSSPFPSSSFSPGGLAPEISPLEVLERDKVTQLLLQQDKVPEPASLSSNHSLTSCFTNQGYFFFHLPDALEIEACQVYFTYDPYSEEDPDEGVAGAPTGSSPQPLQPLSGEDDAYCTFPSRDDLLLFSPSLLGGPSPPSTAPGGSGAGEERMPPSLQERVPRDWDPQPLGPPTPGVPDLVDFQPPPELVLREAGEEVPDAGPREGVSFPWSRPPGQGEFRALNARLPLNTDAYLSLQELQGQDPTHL


Tests used:
[1] = molecular target: T1, orthogonal hCD122 receptor (hoRb), …; test: cell-based or functional assay
[2] = molecular target: T1, orthogonal hCD122 receptor (hoRb), …; test: cell-based or functional assay; remark: listed apart in the source
Throughout, for Relative Proliferation Fold Change 3F8 1:10: reference of the scale not given here.
Throughout, for Relative Proliferation Fold Change 3F8 1:2: reference of the scale not given here.
Throughout, for Relative Proliferation Fold Change 3F8 1:50: reference of the scale not given here.
Throughout, for Relative Proliferation Fold Change NKL 1:10: reference of the scale not given here.
Throughout, for Relative Proliferation Fold Change NKL 1:2: reference of the scale not given here.
Throughout, for Relative Proliferation Fold Change NKL 1:50: reference of the scale not given here.

Binder	NKL Ortho Proliferation Signal 1:2 [1]	NKL Ortho Proliferation Signal 1:10 [1]	NKL Ortho Proliferation Signal 1:50 [1]	Relative Proliferation Fold Change NKL 1:2 [1] [fold]	Relative Proliferation Fold Change NKL 1:10 [1] [fold]	Relative Proliferation Fold Change NKL 1:50 [1] [fold]	3F8 Ortho Proliferation Signal 1:2 [2] [cts/min]	3F8 Ortho Proliferation Signal 1:10 [2] [cts/min]	3F8 Ortho Proliferation Signal 1:50 [2] [cts/min]	Relative Proliferation Fold Change 3F8 1:2 [2] [fold]	Relative Proliferation Fold Change 3F8 1:10 [2] [fold]	Relative Proliferation Fold Change 3F8 1:50 [2] [fold]
N88Q, SQVLKA (ligand) APTSSSTKKTQLQLSQLLVLLKAILNGINNYKNPKLTRMLTFKFYMPKKATELKHLQCLEEELKPLEEVLNLAQSKNFHLRPRDLISQINVIVLELKGSETTFMCEYADETATIVEFLNRWITFCQSIISTLT	4980	6960	6240	0.43	0.53	0.5	644	914	1070	1.25	0.84	0.6
I92F, SQVLKA (ligand) APTSSSTKKTQLQLSQLLVLLKAILNGINNYKNPKLTRMLTFKFYMPKKATELKHLQCLEEELKPLEEVLNLAQSKNFHLRPRDLISNINVFVLELKGSETTFMCEYADETATIVEFLNRWITFCQSIISTLT	32200	27000	12800	2.32	1.84	0.92	29700	36300	20900	80.2	57.6	18.4
V91K, SQVLKA (ligand) APTSSSTKKTQLQLSQLLVLLKAILNGINNYKNPKLTRMLTFKFYMPKKATELKHLQCLEEELKPLEEVLNLAQSKNFHLRPRDLISNINKIVLELKGSETTFMCEYADETATIVEFLNRWITFCQSIISTLT	5180	5210	4940	0.74	0.63	0.53	3720	992	804	13.4	1.44	1.25
V91R, SQVLKA (ligand) APTSSSTKKTQLQLSQLLVLLKAILNGINNYKNPKLTRMLTFKFYMPKKATELKHLQCLEEELKPLEEVLNLAQSKNFHLRPRDLISNINRIVLELKGSETTFMCEYADETATIVEFLNRWITFCQSIISTLT	8530	5580	4420	0.86	0.53	0.44	12500	5140	2850	35.6	10	2.93
L14M, SQVLKA (ligand) APTSSSTKKTQLQMSQLLVLLKAILNGINNYKNPKLTRMLTFKFYMPKKATELKHLQCLEEELKPLEEVLNLAQSKNFHLRPRDLISNINVIVLELKGSETTFMCEYADETATIVEFLNRWITFCQSIISTLT	57200	54500	26700	3.76	3.45	1.98	39800	41500	18500	40.9	34.1	12.1

The remaining lines, values ahead:

NKL Ortho Proliferation Signal 1:2 [1]	NKL Ortho Proliferation Signal 1:10 [1]	NKL Ortho Proliferation Signal 1:50 [1]	Relative Proliferation Fold Change NKL 1:2 [1] [fold]	Relative Proliferation Fold Change NKL 1:10 [1] [fold]	Relative Proliferation Fold Change NKL 1:50 [1] [fold]	3F8 Ortho Proliferation Signal 1:2 [2] [cts/min]	3F8 Ortho Proliferation Signal 1:10 [2] [cts/min]	3F8 Ortho Proliferation Signal 1:50 [2] [cts/min]	Relative Proliferation Fold Change 3F8 1:2 [2] [fold]	Relative Proliferation Fold Change 3F8 1:10 [2] [fold]	Relative Proliferation Fold Change 3F8 1:50 [2] [fold]	Binder
43600	29000	15800	3.64	1.92	1.09	36500	38600	18700	181	54.1	14.5	Q126H, SQVLKA (ligand) APTSSSTKKTQLQLSQLLVLLKAILNGINNYKNPKLTRMLTFKFYMPKKATELKHLQCLEEELKPLEEVLNLAQSKNFHLRPRDLISNINVIVLELKGSETTFMCEYADETATIVEFLNRWITFCHSIISTLT
47400	48800	21400	3.71	3.45	1.63	31600	33100	13600	39.6	38.8	12.7	T113N, SQVLKA (ligand) APTSSSTKKTQLQLSQLLVLLKAILNGINNYKNPKLTRMLTFKFYMPKKATELKHLQCLEEELKPLEEVLNLAQSKNFHLRPRDLISNINVIVLELKGSETTFMCEYADETANIVEFLNRWITFCQSIISTLT
42000	50400	22800	3.95	3.6	1.95	43700	44600	24800	0.72	4.37	5.3	C125A, SQVLKA (ligand) APTSSSTKKTQLQLSQLLVLLKAILNGINNYKNPKLTRMLTFKFYMPKKATELKHLQCLEEELKPLEEVLNLAQSKNFHLRPRDLISNINVIVLELKGSETTFMCEYADETATIVEFLNRWITFAQSIISTLT
48200	59500	27800	4.29	4.53	2.26	36200	45000	26100	140	66.6	26.9	C125S, SQVLKA (ligand) APTSSSTKKTQLQLSQLLVLLKAILNGINNYKNPKLTRMLTFKFYMPKKATELKHLQCLEEELKPLEEVLNLAQSKNFHLRPRDLISNINVIVLELKGSETTFMCEYADETATIVEFLNRWITFSQSIISTLT
47800	44200	20400	4.2	3.22	1.52	29100	34000	18600	84	51.4	23.2	D109C, SQVLKA (ligand) APTSSSTKKTQLQLSQLLVLLKAILNGINNYKNPKLTRMLTFKFYMPKKATELKHLQCLEEELKPLEEVLNLAQSKNFHLRPRDLISNINVIVLELKGSETTFMCEYACETATIVEFLNRWITFCQSIISTLT
53000	55400	25200	3.29	3.64	1.9	35600	40100	19700	91.6	32.5	33.1	K97Q, SQVLKA (ligand) APTSSSTKKTQLQLSQLLVLLKAILNGINNYKNPKLTRMLTFKFYMPKKATELKHLQCLEEELKPLEEVLNLAQSKNFHLRPRDLISNINVIVLELQGSETTFMCEYADETATIVEFLNRWITFCQSIISTLT
47600	54800	29500	3.88	3.48	2.09	29300	42400	27100	24.4	37.6	39.7	M104A, SQVLKA (ligand) APTSSSTKKTQLQLSQLLVLLKAILNGINNYKNPKLTRMLTFKFYMPKKATELKHLQCLEEELKPLEEVLNLAQSKNFHLRPRDLISNINVIVLELKGSETTFACEYADETATIVEFLNRWITFCQSIISTLT
